{
  "source": "patent US20250066499A1",
  "about": "(SUNSHINE GUOJIAN PHARMACEUTICAL SHANGHAI, published 2025)",
  "binders": {"B1": {"name": "48A11-HuV33 (antibody, human IgG4, V domains shown)", "VH": "QVQLVQSGAEVKKPGASVKVSCKASGYTFTSYWMHWVRQAPGQGLEWIGEINPSIGRTNYNEKFKSRVTLTRDTSTSTAYMELSSLRSEDTAVYYCARRVYGTMDYWGQGTLVTVSS", "VL": "DIQMTQSPSSLSASVGDRVTITCKASQDINSYLSWFQQKPGKSPKLLIYRANIWVDGVPSRFSGSGSGQDYTFTISSLQPEDIATYYCLQYDELYTFGQGTKVEIK", "notes": "Humanized"}},
  "key": {"[1]": {"biological_target": "T1, CD73-ND-L181A (human, UniProt P21589 27-317)", "T1 construct": "Alanine mutant of CD73-ND", "T1 sequence": "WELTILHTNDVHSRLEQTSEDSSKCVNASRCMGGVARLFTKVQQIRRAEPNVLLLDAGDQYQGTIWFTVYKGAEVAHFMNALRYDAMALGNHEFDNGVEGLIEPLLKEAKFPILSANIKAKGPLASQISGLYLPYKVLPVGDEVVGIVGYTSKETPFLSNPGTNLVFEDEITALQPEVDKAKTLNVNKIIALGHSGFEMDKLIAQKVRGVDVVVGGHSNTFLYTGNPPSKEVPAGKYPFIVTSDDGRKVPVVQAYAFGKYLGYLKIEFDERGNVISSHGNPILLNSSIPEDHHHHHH", "assay": "ELISA, high plateau value (OD 450 nm)", "experimental": "(§1) The ELISA plates were coated with SA protein diluted to 1.5 μg/mL in coating buffer (50 mM carbonate coating buffer, pH 9.6) and incubated overnight at 4° C. The supernatant was discarded, and the plates were washed three times with PBST. Then, 5% skimmed milk powder prepared with PBS was added for blocking and the plates were incubated for 2 h at 37° C. After washing the plates once with PBST, CD73-biotin protein (prepared by biotinylating CD73-His protein according to the EZ-Link NHS-Biotin Reagent instructions) was diluted to 0.5 μg/mL and added at 100 μL/well for incubation at room temperature for 1 h. The plates were washed three times with PBST, and the prepared murine-derived monoclonal antibodies against human CD73 were serially diluted with 1% BSA buffer prepared with PBST and added to the ELISA plates at 100 μl/well. The plates were incubated at 37° C. for 1 h. After washing the plates three times with PBST, HRP-labeled goat anti-mouse IgG secondary antibody was added and the plates were incubated for 30 min at 37° C. After washing the plates three times with PBST, the residual droplets were patted dry on absorbent paper as much as possible. Then, 100 μl of TMB color developing solution was added to each well, and the plates were incubated in the dark at room temperature for 5 min for color development. Subsequently, 50 μl of 2M H₂SO₄ stop solution was added to each well to terminate the substrate reaction. The OD values were read at 450 nm using a multimode microplate reader to analyze the binding ability of the tested antibodies to the target antigen human CD73-His.\n(§2) Referring to the experimental method in Example 3, the affinity of 48A11-HuV33 for various mutant proteins of CD73-ND was determined. The SA protein was diluted to 1 μg/mL for coating the ELISA plates, and the biotinylated CD73 protein (CD73-biotin) was used at a concentration of 0.1 μg/mL."}, "[2]": {"biological_target": "T2, CD73-ND-T183A (human, UniProt P21589 27-317)", "T2 construct": "Alanine mutant of CD73-ND", "T2 sequence": "T1 sequence with A181L, T183A", "assay": "ELISA, high plateau value (OD 450 nm)", "experimental": "as §1, §2"}, "[3]": {"biological_target": "T3, CD73-ND-N185A (human, UniProt P21589 27-317)", "T3 construct": "Alanine mutant of CD73-ND", "T3 sequence": "T1 sequence with A181L, N185A", "assay": "ELISA, high plateau value (OD 450 nm)", "experimental": "as §1, §2"}, "[4]": {"biological_target": "T4, CD73-ND-his (human, UniProt P21589 27-317)", "T4 construct": "Biotinylated and captured on streptavidin in the ELISA", "T4 sequence": "T1 sequence with A181L", "assay": "ELISA; decline multiple of EC50 against CD73-ND", "experimental": "as §1, §2"}, "[5]": {"biological_target": "T5, CD73-ND-Y132A (human, UniProt P21589 27-317)", "T5 construct": "Alanine mutant of CD73-ND", "T5 sequence": "T1 sequence with Y132A, A181L", "assay": "ELISA; decline multiple of EC50 against CD73-ND", "experimental": "as §1, §2"}, "[6]": {"biological_target": "T6, CD73-ND-P134A (human, UniProt P21589 27-317)", "T6 construct": "Alanine mutant of CD73-ND", "T6 sequence": "T1 sequence with P134A, A181L", "assay": "ELISA; decline multiple of EC50 against CD73-ND", "experimental": "as §1, §2"}, "[7]": {"biological_target": "T4, CD73-ND-his", "assay": "ELISA as in Example 3, antigen CD73-ND-his, antibody titrated, absorbance 450 nm"}},
  "note": "Substitutions are numbered along the chain they refer to.",
  "data": [
    {"binder": "B1", "values": [
      {"measurement": "Top", "setting": "[1]", "result": 1.05},
      {"measurement": "Top", "setting": "[2]", "result": 1.98},
      {"measurement": "Top", "setting": "[3]", "result": 1.9},
      {"measurement": "Ratio(EC50)", "setting": "[4]", "result": 1, "unit": "fold"},
      {"measurement": "Ratio(EC50)", "setting": "[5]", "result": 69.2, "unit": "fold"},
      {"measurement": "Ratio(EC50)", "setting": "[6]", "result": 1.3, "unit": "fold"},
      {"measurement": "EC50 (read off the curve)", "setting": "[7]", "result": "~0.04", "unit": "nM"}
    ]}
  ]
}
